We go through one variant from IntAct's records for PubMed 18723617.

Sequences and labels used below:
B1: Motility protein B (Salmonella typhimurium), P55892 (parent)
chain: MKNQAHPIVVVKRRRHKPHGGGAHGSWKIAYADFMTAMMAFFLVMWLISISSPKELIQIAEYFRTPLATAVTGGNRIANSESPIPGGGDDYTQQQGEVEKQPNIDELKKRMEQSRLNKLRGDLDQLIESDPKLRALRPHLKIDLVQEGLRIQIIDSQNRPMFKTGSAEVEPYMRDILRAIAPVLNGIPNRISLAGHTDDFPYANGEKGYSNWELSADRANASRRELVAGGLDNGKVLRVVGMAATMRLSDRGPDDAINRRISLLVLNKQAEQAILHENAESQNEPVSVLQQPAAAPPASVPTSPKAEPR
partner: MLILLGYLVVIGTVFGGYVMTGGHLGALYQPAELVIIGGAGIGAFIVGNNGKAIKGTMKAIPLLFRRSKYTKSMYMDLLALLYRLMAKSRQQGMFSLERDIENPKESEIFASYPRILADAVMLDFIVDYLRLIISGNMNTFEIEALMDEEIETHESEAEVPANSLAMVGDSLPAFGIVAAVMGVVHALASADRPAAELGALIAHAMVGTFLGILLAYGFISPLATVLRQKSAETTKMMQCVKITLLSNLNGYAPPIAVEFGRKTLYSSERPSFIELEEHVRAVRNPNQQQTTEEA

The experiment covers variants of B1. As to conditions: with mota_salty motA.
For the variant MKNQAHPIVVVKRRRHKPHGGGAHGSWKIAYAEFMTAMMAFFLVMWLISISSPKELIQIAEYFRTPLATAVTGGNRIANSESPIPGGGDDYTQQQGEVEKQPNIDELKKRMEQSRLNKLRGDLDQLIESDPKLRALRPHLKIDLVQEGLRIQIIDSQNRPMFKTGSAEVEPYMRDILRAIAPVLNGIPNRISLAGHTDDFPYANGEKGYSNWELSADRANASRRELVAGGLDNGKVLRVVGMAATMRLSDRGPDDAINRRISLLVLNKQAEQAILHENAESQNEPVSVLQQPAAAPPASVPTSPKAEPR [D33E], the “effect of a mutation on the interaction” value was “decreasing interaction strength”.
